Measured values from PMC6155126.

Tests used:
[1] = molecular target: FLAG-Pol λ-WT (human) (UniProt Q9UGP5)
[2] = molecular target: FLAG-PAXX (human) (UniProt Q9BUH6); test: affinity purification with mass spectrometry; anti-FLAG IP of FLAG-PAXX, -XLF, -XRCC4, -DNA-PKcs (stable) or FLAG-Pol λ (transient) from nucleoplasmic and benzonase-treated soluble chromatin fractions of HEK293F cells; FLAG peptide elution; LC-MS/MS

FLAG-Pol λ-WT (human), sequence (Q9UGP5 whole entry): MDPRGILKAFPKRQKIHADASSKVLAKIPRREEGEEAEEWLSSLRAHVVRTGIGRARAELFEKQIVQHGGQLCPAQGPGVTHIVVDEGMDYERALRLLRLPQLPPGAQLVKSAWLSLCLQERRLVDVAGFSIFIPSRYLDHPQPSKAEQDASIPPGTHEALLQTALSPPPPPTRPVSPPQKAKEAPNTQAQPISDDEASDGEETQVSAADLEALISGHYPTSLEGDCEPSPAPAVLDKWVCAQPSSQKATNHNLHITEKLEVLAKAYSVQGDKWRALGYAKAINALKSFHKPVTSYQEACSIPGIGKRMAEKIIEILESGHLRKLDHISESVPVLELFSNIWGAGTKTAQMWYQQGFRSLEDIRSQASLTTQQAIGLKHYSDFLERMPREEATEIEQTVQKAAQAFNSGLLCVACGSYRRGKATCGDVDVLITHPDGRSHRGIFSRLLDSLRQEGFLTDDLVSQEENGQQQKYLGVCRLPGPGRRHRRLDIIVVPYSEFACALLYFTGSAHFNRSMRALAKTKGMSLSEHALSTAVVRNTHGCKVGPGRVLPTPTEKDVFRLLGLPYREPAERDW

Substance | Pol λ-dependent gap filling synthesis on a 5nt-gapped dsDNA (33-mer), stimulation by added protein over a concentration series [1] [fold] | stoichiometry N [2]
FLAG-PAXX (from UniProt Q9BUH6 1-204) (natural protein) | < 10 | –
DNA-PK holoenzyme (endogenous) (from UniProt P78527 1-4128; P12956 1-609; P13010 1-732) (complex) | – | 1 to 1.5
